The target in this data set is T1, activated C1s (Homo sapiens, UniProt P09871).
T1 construct: purchased Complement Technology
T1 sequence (P09871 16-437 limits assumed): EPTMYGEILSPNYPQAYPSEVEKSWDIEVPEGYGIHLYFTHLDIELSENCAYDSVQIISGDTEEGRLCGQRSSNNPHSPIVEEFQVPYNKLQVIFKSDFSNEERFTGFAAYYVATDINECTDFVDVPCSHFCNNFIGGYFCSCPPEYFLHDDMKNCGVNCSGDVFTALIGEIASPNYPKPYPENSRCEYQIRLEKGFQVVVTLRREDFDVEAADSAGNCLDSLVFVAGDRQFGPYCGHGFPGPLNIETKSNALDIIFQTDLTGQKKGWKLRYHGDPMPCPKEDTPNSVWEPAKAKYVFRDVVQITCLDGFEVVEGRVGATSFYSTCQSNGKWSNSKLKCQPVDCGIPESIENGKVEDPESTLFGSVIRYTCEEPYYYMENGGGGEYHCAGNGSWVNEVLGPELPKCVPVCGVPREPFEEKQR
T1 sequence (P09871 438-688 limits assumed): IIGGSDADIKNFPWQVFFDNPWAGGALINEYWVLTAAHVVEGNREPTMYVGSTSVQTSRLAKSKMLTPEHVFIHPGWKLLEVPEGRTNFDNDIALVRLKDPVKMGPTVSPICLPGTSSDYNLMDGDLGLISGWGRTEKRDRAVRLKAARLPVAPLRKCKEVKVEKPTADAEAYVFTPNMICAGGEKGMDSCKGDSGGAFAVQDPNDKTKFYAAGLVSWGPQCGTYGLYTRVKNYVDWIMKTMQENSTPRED
Kind of data set: Anti-interference experiment of fluorescence detection method for activated C1s. The data set is classed as biochemical. The conditions noted are these: for measured activated C1s enzymatic activity: n = 4. How it is done: • 1. Preparation of a buffer: 1) Binding Buffer: 0.1 M morpholinoethanesulfonic acid (MES, pH=5.0); • 2) Washing Buffer: TBS containing 0.05% Tween 20; • 3) Blocking Buffer: containing 0.05 M Tris, 1.0% BSA, and 0.05% Tween 20; • 4) Desired Buffer: Tris buffer containing 0.05% Tween 20 and BSA; and • 5) Tris Buffer: 0.05 M Tris, 0.15 M NaCl, and 0.2% (w/v) polyethylene glycol 8000. • 2. Preparation of immunomagnetic beads (C1s recombinant antibody-coupled magnetic beads) • (1) 10 mg of magnetic beads (Merck carboxyl magnetic beads, with a particle size of 1 μm) were washed 3 times with 1 mL of Binding Buffer, and vortexed to mix evenly. • (2) 20 μg of the C1s recombinant antibody obtained in Example 1 was added into every 1 mg of the magnetic beads, mixed well, and vortexed at a room temperature (25° C.) for 15 min. • (3) 50 μg of a coupling agent was added into every 1 mg of the magnetic beads, mixed well, and vortexed at a room temperature for 1 h. • (4) 1 mL of Binding Buffer was added and vortexed at a room temperature for 3 h. • (5) The magnetic beads were washed 4 times with 0.5 mL of Washing Buffer. • (6) The magnetic beads were resuspended with 1 mL of Desired Buffer to obtain C1s recombinant antibody-coupled magnetic beads with a concentration of 5 mg/mL, and stored at 4° C. until later use. • 3. Detection of the enzymatic activity of activated C1s • (1) 60 μL of the C1s recombinant antibody-coupled magnetic beads were stirred evenly, subjected to magnetic suction to remove a supernatant, added with 200 μL of PBS to mix well, subjected to the magnetic suction to remove a supernatant, and washed repeatedly 2 times. • (2) 10 μL of a sample to be tested or activated C1s standards with different concentrations were diluted to 100 μL with PBS, and mixed vertically with the C1s recombinant antibody-coupled magnetic beads at a room temperature for 10 min. The magnetic suction was performed to discard a supernatant. According to the enzymatic activity of the C1s standard determined in Example 4, the enzymatic activity conversion of the C1s standards with different concentrations is shown in Table 2.
• (3) The magnetic beads were repeatedly washed 3 times with 100 μL of PBS. • (4) The magnetic beads were resuspended with 90 μL of Tris buffer. • (5) 10 μL of substrate peptide 3 was added at a concentration of 1 μg/mL. • (6) The detection was performed with a microplate reader at 360/40 excitation light wave and 460/40 emission light wave, with a best reaction time of 1 h as a detection point, and the fluorescence signals were measured and recorded. The straight line fitting was performed by taking a C1s enzymatic activity as an abscissa and a fluorescence signal as an ordinate with a double logarithmic Log-Log mathematical model and using a least square method to plot a standard curve.
The possibility that bilirubin, chyle, and hemoglobin in clinical samples cause interference in the experiment was taken into account. Referring to the interference check A kit, high-, medium-, and low-concentration standards were added with different concentrations of bilirubin (with final concentrations of 0 mg/mL, 0.06 mg/mL, 0.14 mg/mL, and 0.20 mg/mL, respectively), chyle (with final concentrations of 0 FTU, 600 FTU, 1,400 FTU, and 2,000 FTU, respectively), and a hemoglobin solution (with final concentrations of 0 mg/mL, 1.5 mg/mL, 3.5 mg/mL, and 5 mg/mL, respectively). The measured high, medium and low average concentrations containing different interfering substances were subtracted from the corresponding average concentrations without interfering substances, and a difference and a percentage of the difference in an average concentration of a blank control without interfering substances were calculated.

For “Hemoglobin: hemoglobin solution, interfering substance from interference check A kit”, the “measured activated C1s enzymatic activity” value was determined as 60.57 ± 3.66 pmol/min/µg (High value standard, hemoglobin 1.5 mg/mL); 56.23 ± 4.58 pmol/min/µg (High value standard, hemoglobin 3.5 mg/mL); 59.50 ± 5.13 pmol/min/µg (High value standard, hemoglobin 5 mg/mL); 6.00 ± 0.59 pmol/min/µg (Low value standard, hemoglobin 1.5 mg/mL); 6.2 ± 0.56 pmol/min/µg (Low value standard, hemoglobin 3.5 mg/mL); 6.37 ± 0.51 pmol/min/µg (Low value standard, hemoglobin 5 mg/mL). In addition, the “measured activated C1s enzymatic activity” value came to 29.47 ± 1.15 pmol/min/µg (Medium value standard, hemoglobin 1.5 mg/mL); 28.16 ± 2.68 pmol/min/µg (Medium value standard, hemoglobin 3.5 mg/mL); 28.23 ± 1.45 pmol/min/µg (Medium value standard, hemoglobin 5 mg/mL). Besides, the “interference with the detection method” value (hemoglobin 5 mg/mL) is reported as “not interfered”.

The values above are taken from US20250012721A1, “FLUORESCENCE DETECTION KIT FOR ACTIVATED COMPLEMENT C1s, DETECTION METHOD USING SAME, AND USE THEREOF” (JIANGSU UNIVERSITY, priority 2022, published 2025).
